The record followed here is patent US20260176378A1 (DYAX, published 2026).

First the molecules themselves.
B1: M27-A10 (Fab, V domains shown)
VH: EVQLLESGGGLVQPGGSLRLSCAASGFTFSWYRMDWVRQAPGKGLEWVSSIWPSGGLTSYADSVKGRFTISRDNSKNTLYLQMNSLRAEDTAVYYCARGWAPGGDAFDIWGQGTMVTVSS
VL: DIQMTQSPSSLSASVGDRVTITCRASQSISAYLNWYQQKPGKAPQLLMYGVGSLQSGVPSRFSGSGSGTDFTLTISSLQPEDFATYFCQQGYTTPVTFGGGTKVEIK
B2: M12-D10 (Fab, V domains shown)
VH: EVQLLESGGGLVQPGGSLRLSCAASGFTFSNYPMDWVRQAPGKGLEWVSSISSSGGWTNYADSVKGRFTISRDNSKNTLYLQMNSLRAEDTAVYYCATDTSGSYLGFDYWGQGTLVTVSS
VL: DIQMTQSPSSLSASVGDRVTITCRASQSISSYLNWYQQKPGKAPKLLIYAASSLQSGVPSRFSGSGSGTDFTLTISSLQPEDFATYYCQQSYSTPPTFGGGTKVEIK
B3: M28-E11 (Fab, V domains shown)
VH: EVQLLESGGGLVQPGGSLRLSCAASGFTFSLYDMTWVRQAPGKGLEWVSGISSSGGVTIYADSVKGRFTISRDNSKNTLYLQMNSLRAEDTAVYYCARTYYYDSSGYADAFDIWGQGTMVTVSS
VL: DIQMTQSPSSVSASVGDRVTINCRASQDISNWLAWYQQKPGKAPNLLIYAASSLQTGAPSRFSGSGSGTDFTLTISSLQPEDFGTYVCQQSYSLPWTFGLGTKVEVR
B4: M28-A01 (Fab, V domains shown)
VH: EVQLLESGGGLVQPGGSLRLSCAASGFTFSWYAMHWVRQAPGKGLEWVSGIYSSGGYTKYADSVKGRFTISRDNSKNTLYLQMNSLRAEDTAVYYCARDLSNGDDVFDIWGQGTMVTVSS
VL: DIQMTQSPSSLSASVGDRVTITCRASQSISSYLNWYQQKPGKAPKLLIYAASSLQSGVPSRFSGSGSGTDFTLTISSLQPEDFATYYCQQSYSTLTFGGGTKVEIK
B5: M11-G12 (Fab, V domains shown)
VH: EVQLLESGGGLVQPGGSLRLSCAASGFTFSQYPMNWVRQAPGKGLEWVSSISSSGGFTTYADSVKGRFTISRDNSKNTLYLQMNSLRAEDTAVYYCAREEQQGGFDYWGQGTLVTVSS
VL: DIQMTQSPSSLSAFVGDRVSITCRASQTISVYVNWYQHKSGQAPKLLIYGASSLQSGVPSRFSGSGSGTDFTLTISSLQPEDFATYFCQQSYSIPFTFGGGTDVQIR
B6: M12-E06 (Fab, V domains shown)
VH: EVQLLESGGGLVQPGGSLRLSCAASGFTFSQYKMLWVRQAPGKGLEWVSGIGPSGGLTAYADSVKGRFTISRDNSKNTLYLQMNSLRAEDTAVYYCARAPWFGELGMDVWGQGTTVTVSS
VL: DIQMTQSPSSLSASVGDRVSITCRASQSISTYLNWYQHKPGKAPTLLIYGAFSLQSGVPSRFSGSGSGTDFALTISSLQPEDFATYYCQQSHSTPPTFGQGTRVEIK
B7: M27-B12 (Fab, V domains shown)
VH: EVQLLESGGGLVQPGGSLRLSCAASGFTFSWYQMMWVRQAPGKGLEWVSSISPSGGITEYADSVKGRFTISRDNSKNTLYLQMNSLRAEDTAVYYCARDRSSGWYYYGMDVWGQGTTVTVSS
VL: QYELTQPPAVSVSPGQTATITCSGDKLGDEYAAWYQQKPGQSPVLVIYQDRKRPSGIPERFSGSNFGNTATLTITGTQVMDEADYYCQAWGKRNVVFGGGTKLTVL
B8: M28-D02 (Fab, V domains shown)
VH: EVQLLESGGGLVQPGGSLRLSCAASGFTFSWYPMQWVRQAPGKGLEWVSYIYPSGGGTDYADSVKGRFTISRDNSKNTLYLQMNSLRAEDTATYYCATSSGWLGDAFDIWGQGTMVTVSS
VL: DIQMTQSPSSLSASEGDMVTITCRTSRRIGTYLNWYQQKPGKAPKLLIYGASSLQSGVPSRFSGSGSGTDFTLTVSSLQPEDVGTYYCQQSFSSPWTFGPGTKVEIK
B9: M12-C10 (Fab, V domains shown)
VH: EVQLLESGGGLVQPGGSLRLSCAASGFTFSDYEMHWVRQAPGKGLEWVSGISPSGGKTQYADSVKGRFTISRDNSKNTLYLQMNSLRAEDTAVYYCARDLKWGGRGSPDWYFDLWGRGTLVTVSS
VL: QSALTQPPSVSVSPGQTASITCSGDKLGEKYVSWYQQKPGQSPVVVIYQDNKRPSGIPERFSGSNSGNTATLTISGTQAVDEADYYCQAWDSYTVVFGGGSKLTVLG
B10: M12-C09 (Fab, V domains shown)
VH: EVQLLESGGGLVQPGGSLRLSCAASGFTFSSYAMVWVRQAPGKGLEWVSSIGSSGGFTLYADSVKGRFTISRDNSKNTLYLQMNSLRAEDTAVYYCASMNLGGGDAFDIWGQGTMVTVSS
VL: DIQMTQSPSSLSASVGDRVTITCRASQSIGIYLNWYHQKPGKAPNLLIYGASSLQSGVPSRFSGSGSGTDFTLTISSLQPGDFATYYCQHSYSTPFTFGGGTKVEIK
B11: M27-F11 (Fab, V domains shown)
VH: EVQLLESGGGLVQPGGSLRLSCAASGFTFSSYHMMWVRQAPGKGLEWVSSIYPSGGATMYADSVKGRFTISRDNSKNTLYLQMNSLRAEDTAMYYCARDGYHYGDYTYFQHWGQGTLVTVSS
VL: DIQMTQSPSFLSASVGDRVTITCRASQGISSYLAWYQQKPGKAPKLLIYAASSLQSGVPSRFSGSGSGTDFTLTISSLQPEDFATYYCQQSYNTLRTFGPGTKVDLK
B12: M27-B01 (Fab, V domains shown)
VH: EVQLLESGGGLVQPGGSLRLSCAASGFTFSDYTMWWVRQAPGKGLEWVSSISSSGGITFYADSVKGRFTISRDNSKNTLYLQMNSLRAEDTAVYYCARSADTAMGGAFDIWGQGTMVTVSS
VL: not shown
B13: M27-G04 (Fab, V domains shown)
VH: EVQLLESGGGLVQPGGSLRLSCAASGFTFSAYYMVWVRQAPGKGLEWVSYISPSGGQTQYADSVKGRFTISRDNSKNTLYLQMNSLRAEDTAVYYCAREAISSSSFDYWGQGTLVTVSS
VL: DIQMTQSPSSLSASVGDRVTITCRASQRISYYLTWYQQKPGKVPKLLIYAASSLESGVPSRFSGSGSGTDFTLTISNLQPEDFATYYCQQAFSTPFTFGGGTKVEIK
B14: M27-H10 (Fab, V domains shown)
VH: EVQLLESGGGLVQPGGSLRLSCAASGFTFSAYQMAWVRQAPGKGLEWVSVIYSSGGYTDYADSVKGRFTISRDNSKNTLYLQMNSLRAEDTAVYYCARHNWNDGAFDIWGQGTMVTVSS
VL: DIQMTQSPSSLSASVGDRVTITCRASQSISNYLNWYQQKPGKAPKFLIYAASSLQSGVPSRFSGSGSGTDFTLSISSLQPEDFATYYCQQSYSTPQTFGQGTKVEMK
B15: M28-E01 (Fab, V domains shown)
VH: EVQLLESGGGLVQPGGSLRLSCAASGFTFSSYPMGWVRQAPGKGLEWVSRISSSGGMTIYADSVKGRFTISRDNSKNTLYLQMNSLRAEDTAVYYCARDDWNVGMDVWGQGTTVTVSS
VL: DIQMTQSPSSLSASVGDRVTITCRASQSISSYLNWYQQKPGKAPKLLIYAASSLQSGVPSKFSGSGSGTDYTLTISSLQPEDFATYYCQQTYTTPWTFGQGTKVEIK
B16: M27-G09 (Fab, V domains shown)
VH: EVQLLESGGGLVQPGGSLRLSCAASGFTFSEYDMAWVRQAPGKGLEWVSYIVSSGGFTSYADSVKGRFTISRDNSKNTLYLQMNSLRAEDTAVYYCTTWAGWIAAADYWGQGTLVTVSS
VL: DIQMTQSPSSVSASVGDRITITCRTRQSISNYLNWYQQKPGEPPKLLIFAASSLQSGVPSRFSGSGTGTEFTLTISSLQPEDLAIYYCQQSYDIPFTFGQGTKLEIK
B17: M27-E03 (Fab, V domains shown)
VH: EVQLLESGGGLVQPGGSLRLSCAASGFTFSSYMMHWVRQAPGKGLEWVSGIYPSGGWTDYADSVKGRFTISRDNSKNTLYLQMNSLRAEDTATYYCARLVAGLDAFDIWGQGTMVTVSS
VL: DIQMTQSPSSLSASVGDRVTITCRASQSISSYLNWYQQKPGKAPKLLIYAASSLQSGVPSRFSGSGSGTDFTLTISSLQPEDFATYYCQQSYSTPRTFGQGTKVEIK
B18: M12-B04 (Fab, V domains shown)
VH: EVQLLESGGGLVQPGGSLRLSCAASGFTFSLYSMYWVRQAPGKGLEWVSRIRPSGGGTVYADSVKGRFTISRDNSKNTLYLQMNSLRAEDTAVYYCARDPLYSSGDVWGQGTTVTVSS
VL: DIQMTQSPSSLSASVGDRVTITCRASQGIRNDLGWYQHKPGKAPKLLIYAASILQSGVPSRFSGTASGTDFTLTISSLQPEDFATYFCLQDYEYPLTFGGGTKLDIK
B19: M27-F04 (Fab, V domains shown)
VH: EVQLLESGGGLVQPGGSLRLSCAASGFTFSWYPMTWVRQAPGKGLEWVSSIGPSGGQTIYADSVKGRFTISRDNSKNTLYLQMNSLRAEDTAVYYCTTEYGDYGGGFDPWGQGTLVTVSS
VL: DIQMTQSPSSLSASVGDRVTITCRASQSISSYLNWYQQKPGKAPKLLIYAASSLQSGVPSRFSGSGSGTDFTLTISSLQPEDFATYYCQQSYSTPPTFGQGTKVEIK
B20: M28-C03 (Fab, V domains shown)
VH: EVQLLESGGGLVQPGGSLRLSCAASGFTFSYYQMGWVRQAPGKGLEWVSSIYPSGGMTDYADSVKGRFTISRDNSKNTLYLQMNSLRAEDTAVYYCTRGSPWGDDAFDIWGQGTMVTVSS
VL: DIQMTQSPSSLSASVGDRVTITCRASQSINFYLNWYQQKPGKAPKLLIYVASSLESGVPSRFSGSASGTEFTLTISSLQPEDFATYYCLQSYSAPYTFGQGTKVEIT
B21: M12-A08 (Fab, V domains shown)
VH: EVQLLESGGGLVQPGGSLRLSCAASGFTFSWYYMGWVRQAPGKGLEWVSWIVSSGGLTLYADSVKGRFTISRDNSKNTLYLQMNSLRAEDTAMYYCARTTVTTGDAFDIWGQGTMVTVSS
VL: DIQMTQSPSSLSASVGDRVTITCRASQSISRYLNWYQQKPGKAPKLLIYAASTLETGVPSRFSGSGSGTDFTLTITTLQPEDFVIYYCQQSYSTPYTFGQGTKLEIK
B22: M27-G01 (Fab, V domains shown)
VH: EVQLLESGGGLVQPGGSLRLSCAASGFTFSLYRMFWVRQAPGKGLEWVSSIWSSGGPTMYADSVKGRFTISRDNSKNTLYLQMNSLRAEDTAVYYCAREYPSTYYFDYWGQGTLVTVSS
VL: DIQMTQSPSSLSASVGDRVTITCRASQSISTYLNWYQQKPGKAPKLLIYGASSLQSGVPSRFSGSGSGTDFTLTISSLQPEDFTIYYCQQSYSDPYTFGQGTKLDIK
B23: M28-D12 (Fab, V domains shown)
VH: EVQLLESGGGLVQPGGSLRLSCAASGFTFSWYTMHWVRQAPGKGLEWVSVIYPSGGPTSYADSVKGRFTISRDNSKNTLYLQMNSLRAEDTATYYCARDGSGSYLGFDYWGQGTLVTVSS
VL: DIQMTQSPSSLSASVGDRVTITCRASQSIATYLNWYQQKPGRAPKLLIYAASSLQSGVPSRFVGGGSGSGTHFTLTISSLQPEDFATYYCQQSYSTRETFGQGTKVEIK

In the assay the target is T1, human plasma kallikrein (human, UniProt P03952 20-390; P03952 391-638).
T1 construct: two disulfide-linked chains; NP_000883.2; also called pKal; hpKal
T1 sequence (P03952 20-390 limits assumed, chain 1 of 2): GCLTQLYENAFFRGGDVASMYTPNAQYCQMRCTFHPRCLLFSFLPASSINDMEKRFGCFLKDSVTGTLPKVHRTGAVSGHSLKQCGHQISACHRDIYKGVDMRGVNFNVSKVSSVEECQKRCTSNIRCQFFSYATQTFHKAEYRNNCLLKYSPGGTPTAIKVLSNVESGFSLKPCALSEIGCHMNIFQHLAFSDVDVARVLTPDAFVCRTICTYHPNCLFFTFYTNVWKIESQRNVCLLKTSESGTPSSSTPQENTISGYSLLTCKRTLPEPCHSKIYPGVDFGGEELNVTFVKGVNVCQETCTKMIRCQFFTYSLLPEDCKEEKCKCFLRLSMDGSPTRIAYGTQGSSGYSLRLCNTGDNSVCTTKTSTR
T1 sequence (P03952 391-638 limits assumed, chain 2 of 2): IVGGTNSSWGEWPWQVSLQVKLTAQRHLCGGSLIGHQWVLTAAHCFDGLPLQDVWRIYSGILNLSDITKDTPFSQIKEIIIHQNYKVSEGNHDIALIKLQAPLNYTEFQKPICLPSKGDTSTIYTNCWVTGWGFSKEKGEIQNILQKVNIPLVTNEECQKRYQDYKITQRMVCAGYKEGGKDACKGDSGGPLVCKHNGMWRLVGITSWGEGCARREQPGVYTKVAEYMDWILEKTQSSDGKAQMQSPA
Nature of the assay: ELISA, biotinylated pKal signal over streptavidin background.
In the case of B1, the “ELISA (T/B)” value worked out at 3.2.

With B2, the “ELISA (T/B)” value turned out to be 9.9.

Consider B3, for which the “ELISA (T/B)” value turned out to be 29.3.

Regarding B4, the “ELISA (T/B)” value stood at 19.

Consider B5, for which the “ELISA (T/B)” value was found to be 4.9.

As for B6, the “ELISA (T/B)” value stood at 48.

With B7, the “ELISA (T/B)” value was 2.3.

As for B8, the “ELISA (T/B)” value was 3.7.

Take B9: the “ELISA (T/B)” value stood at 8.3.

For the molecule B10, the “ELISA (T/B)” value is 7.

In the case of B11, the “ELISA (T/B)” value amounted to 10.

Turning to B12, the “ELISA (T/B)” value was 33.1.

With B13, the “ELISA (T/B)” value stood at 4.1.

Take B14: the “ELISA (T/B)” value was 12.4.

Consider B15, for which the “ELISA (T/B)” value was 41.

In the case of B16, the “ELISA (T/B)” value came out at 2.2.

With B17, the “ELISA (T/B)” value came to 35.9.

As for B18, the “ELISA (T/B)” value came to 18.

As for B19, the “ELISA (T/B)” value stood at 10.5.

On to B20, for which the “ELISA (T/B)” value was 2.2.

Turning to B21, the “ELISA (T/B)” value turned out to be 40.4.

B22: the “ELISA (T/B)” value worked out at 31.4.

Regarding B23, the “ELISA (T/B)” value stood at 41.6.
